The labels stand for the following.
B1: Azoarcus group I ribozyme (parent)
chain: GUGCCUUGCGCCGGGAAACCACGCAAGGGAUGGUGUCAAAUUCGGCGAAACCUAAGCGCCCGCCCGGGCGUAUGGCAACGCCGAGCCAAGCUUCGGCGCCUGCGCCGAUGAAGGUGUAGAGACUAGACGGCACCCACCUAAGGCAAACGCUAUGGUGAAGGCAUAGUCCAGGGAGUGGCGAAAGUCACACAAACCGG

The series covers variants of B1. Put plainly: reverse-splicing fitness (ratio to wild type); higher = more active; in vitro selection; Mg2+ level not given. In a few lines:
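An in vitro group I ribozyme library with randomized positions was T7-transcribed and gel-purified. In triplicate, 10 pmol RNA in EPPS pH 7.5 was reacted with 50 pmoles of a 30-nt RNA substrate for 1 h at 37 °C across several added MgCl2 levels (1–48 mM), then stopped with EDTA. Products were reverse transcribed from a substrate-complementary primer, PCR-amplified and sequenced (HiSeq 4000). Fitness is a variant's read proportion after selection over that before, normalised to wild type.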
As for A111G A120C U176G, the reverse-splicing fitness was determined as 0.125.
For C82G A120U C169U, the reverse-splicing fitness worked out at 0.00719.
Consider A111C A145C C150U C169A, for which the reverse-splicing fitness worked out at 0.0114.
In the case of A111U A120U A145G C150A C169U U176C it was 0.00537; in that of C82A A111U A120U A145U C150U C169G U176A, 0.00409.
In the case of C82G A111U A145U C150A C169G U176G it was 0.0066.
Then C82U A111G A145C C169U U176C, with 0.00903; and C82A A111U A120U A145U C169G U176A, with 0.00291.
As for C82U A145C C169G U176C, the reverse-splicing fitness is 0.00995.
Then C82U A145C C150U C169G U176C, with 0.00881; and C82G A111G A120G C150A, with 0.0101.
Consider C82U A111G A145U C150U C169A U176C, for which the reverse-splicing fitness is 0.00733.
A111G A120C A145U C150G C169G U176G: the reverse-splicing fitness worked out at 0.00416.
For A111G A145G C150U, the reverse-splicing fitness is 0.941.
In the case of C82U A111U A145C C150A C169A U176G it was 0.00585; in that of A111C A145G C150U C169G U176C, 0.021; in that of C82G A111C A120G A145G C150A C169G U176A, 0.0158.
As for C82A A120G A145C C150A U176C, the reverse-splicing fitness amounted to 0.00806.
Take C82G A120U C150U C169G U176C: the reverse-splicing fitness is 0.00376.
As for C82A A111U A145C C150G C169A U176C, the reverse-splicing fitness amounted to 0.0076.
Then C82G A111U A120C A145G C150U C169U, with 0.0134; and C82A A111C A120C C150U C169G, with 0.00849.
Then C82U C169U U176G, with 0.00445; and C82G A111G A145G C169A, with 0.00875.
Take A111C C150G C169G: the reverse-splicing fitness was determined as 0.00897.
Take C82G A145U C150A U176G: the reverse-splicing fitness worked out at 0.0186.
Turning to A111G A120U A145C C169U U176G, the reverse-splicing fitness is 0.00329.
Then C82G A111G A120G A145G C150A U176G, with 0.0096; and A111G A120C A145U C169U U176G, with 0.00772; and A111C C150U U176C, with 0.388.
Turning to C82G C150A, the reverse-splicing fitness worked out at 0.0416.
Consider A111U A145C C150U C169G U176A, for which the reverse-splicing fitness stood at 0.0212.
Regarding C82U A111U A120U A145C C150G C169U U176C, the reverse-splicing fitness came out at 0.0022.
Then C82U A111C A120U C150G C169A, with 0.00691.
Consider C82U A120G C150U, for which the reverse-splicing fitness was 0.0161.
In the case of C82U A111U A120G C150U C169A U176A it was 0.0156.
In the case of C82U A120C A145G C169U U176A it was 0.0177.
Then C82A A111U A120C A145G C150G C169G U176G, with 0.00673; and C82U A111G A120U C169G U176A, with 0.0028.
With C82U A111G A120U A145C C150A C169U U176G, the reverse-splicing fitness was found to be 0.00196.
C82A A111C A120C A145G C150U C169U U176C: the reverse-splicing fitness worked out at 0.0128.
In the case of C82U A111U A120U A145C C150U C169A U176A it was 0.00217; in that of C82G A111U A120G A145U C150G U176G, 0.0039.
Then C82A A111C A120C C150A C169G, with 0.00949; and C82G A120U A145C C150A C169A U176C, with 0.00208; and C82A A111C A120U A145G C150U C169G U176G, with 0.00299.
On to C82A A111U A120U A145G C150U C169A U176G, for which the reverse-splicing fitness came to 0.00259.
For the variant C82A A111G A120U A145C C169G U176G, the reverse-splicing fitness is 0.00175.
Then A111G A120G A145U C150A U176A, with 0.0179.
For the variant C82A A111C C150G C169G, the reverse-splicing fitness amounted to 0.00723.
For the variant C82A A111C C150G C169A, the reverse-splicing fitness came to 0.00766.
Then C82U A111C A120C A145C C150G C169A, with 0.00861; and C82A A111G A120U C150A C169A U176A, with 0.00499.
Then C82U A120G A145C U176A, with 0.0109.
In the case of A111U A145G C150U C169G U176C, the reverse-splicing fitness amounted to 0.0269.
Take A111G A120U A145G C150A C169A U176A: the reverse-splicing fitness came to 0.00539.
Then C82U A111U A120C A145G C150G C169U, with 0.00911; and C82G A145G C169A U176A, with 0.0187; and C82A A120U A145U C150A C169G U176A, with 0.00237.
In the case of C82G A111C A120U C150A, the reverse-splicing fitness was 0.00807.
In the case of A111G A120C A145G C150G C169A U176C it was 0.0102; in that of A111G A120C A145G C150G C169A U176G, 0.00623; in that of C82U A111C A145U C150U C169A U176G, 0.00765.
C82G A120G A145C C150U C169G U176G: the reverse-splicing fitness is 0.00426.
Take A111U A120G A145G C150G C169G U176G: the reverse-splicing fitness was 0.00518.
Then C82G A111U A120U A145G C150G C169U, with 0.00767.
For C82U A111U A120C A145C C150A C169U U176A, the reverse-splicing fitness amounted to 0.0149.
Turning to C82A A111G A120G C150G C169A U176C, the reverse-splicing fitness stood at 0.0123.
Regarding A111G A120U A145G C150U U176G, the reverse-splicing fitness was found to be 0.0427.
In the case of C82U A111U A145U C150U C169A U176A, the reverse-splicing fitness came to 0.0113.
Regarding C82A A111U A145G C150G U176G, the reverse-splicing fitness was 0.00688.
Then C82G A111U A145G C150G C169A U176A, with 0.0133; and C82A A111C A120C A145U C150A, with 0.00979.
In the case of C82G A111U A145C C150A C169G U176G it was 0.00716; in that of C82A A145G U176G, 0.113.
Then C82G A111C A145C C150U C169G U176G, with 0.00873; and A145U C150G C169G U176C, with 0.00868.
For the variant C82G A111C A145U C150U C169G, the reverse-splicing fitness was 0.00905.
C82A A111U A120G A145G C150G C169U: the reverse-splicing fitness is 0.00901.
In the case of C82A A111U A120C A145U C150A C169U U176C it was 0.0133.
On to A111C A120G A145G C150A U176A, for which the reverse-splicing fitness is 0.0132.
Then C82G A111C A120G A145C C150U C169A U176G, with 0.00557; and C82G A111C A120G A145C C150U C169A U176C, with 0.00666.
Then C82G A111G A145U C169U U176C, with 0.0127.

The record behind these values is the RNAGym collection of RNA variant scans (doi:10.1093/molbev/msab373).
